Test results taken from patent US6326464.

What was measured:
Test in all cases: cell_activity
Conditions in all cases: H358 cells, 50 ng plasmid
[1] = tested on: V-325 (VP16-75-325-lz) (Homo sapiens / herpes simplex virus chimera)
[2] = tested on: V-336 (VP16-75-336-lz) (Homo sapiens / herpes simplex virus chimera)
[3] = molecular target: wild-type p53 (Homo sapiens) (UniProt P04637)
Sequence of wild-type p53 (Homo sapiens) (P04637 whole entry): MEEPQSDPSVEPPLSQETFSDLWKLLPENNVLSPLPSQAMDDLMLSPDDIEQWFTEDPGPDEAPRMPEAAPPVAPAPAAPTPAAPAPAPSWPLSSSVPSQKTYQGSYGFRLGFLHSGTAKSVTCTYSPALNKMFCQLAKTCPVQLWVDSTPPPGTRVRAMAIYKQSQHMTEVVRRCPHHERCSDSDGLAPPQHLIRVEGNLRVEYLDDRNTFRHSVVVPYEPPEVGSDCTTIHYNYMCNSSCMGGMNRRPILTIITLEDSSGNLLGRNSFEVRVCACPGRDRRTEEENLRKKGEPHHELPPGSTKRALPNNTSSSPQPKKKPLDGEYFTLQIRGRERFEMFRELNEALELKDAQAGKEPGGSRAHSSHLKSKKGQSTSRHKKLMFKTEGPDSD

Substance: p53RE consensus CAT reporter
- activity (relative CAT activity (vector=1)) [1]: 25
- activity (relative CAT activity (vector=1)) [2]: 16
- activity (relative CAT activity (vector=1)) [3]: 6
